B1: MexB, full length (natural protein)
chain: MSKFFIDRPIFAWVIALVIMLAGGLSILSLPVNQYPAIAPPAIAVQVSYPGASAETVQDTVVQVIEQQMNGIDNLRYISSESNSDGSMTITVTFEQGTDPDIAQVQVQNKLQLATPLLPQEVQRQGIRVTKAVKNFLMVVGVVSTDGSMTKEDLSNYIVSNIQDPLSRTKGVGDFQVFGSQYSMRIWLDPAKLNSYQLTPGDVSSAIQAQNVQISSGQLGGLPAVKGQQLNATIIGKTRLQTAEQFENILLKVNPDGSQVRLKDVADVGLGGQDYSINAQFNGSPASGIAIKLATGANALDTAKAIRQTIANLEPFMPQGMKVVYPYDTTPVVSASIHEVVKTLGEAILLVFLVMYLFLQNFRATLIPTIAVPVVLLGTFGVLAAFGFSINTLTMFGMVLAIGLLVDDAIVVVENVERVMAEEGLSPREAARKSMGQIQGALVGIAMVLSAVFLPMAFFGGSTGVIYRQFSITIVSAMALSVIVALILTPALCATMLKPIEKGDHGEHKGGFFGWFNRMFLSTTHGYERGVASILKHRAPYLLIYVVIVAGMIWMFTRIPTAFLPDEDQGVLFAQVQTPPGSSAERTQVVVDSMREYLLEKESSSVSSVFTVTGFNFAGRGQSSGMAFIMLKPWEERPGGENSVFELAKRAQMHFFSFKDAMVFAFAPPSVLELGNATGFDLFLQDQAGVGHEVLLQARNKFLMLAAQNPALQRVRPNGMSDEPQYKLEIDDEKASALGVSLADINSTVSIAWGSSYVNDFIDRGRVKRVYLQGRPDARMNPDDLSKWYVRNDKGEMVPFNAFATGKWEYGSPKLERYNGVPAMEILGEPAPGLSSGDAMAAVEEIVKQLPKGVGYSWTGLSYEERLSGSQAPALYALSLLVVFLCLAALYESWSIPFSVMLVVPLGVIGALLATSMRGLSNDVFFQVGLLTTIGLSAKNAILIVEFAKELHEQGKGIVEAAIEACRMRLRPIVMTSLAFILGVVPLAISTGAGSGSQHAIGTGVIGGMVTATVLAIFWVPLFYVAVSTLFKDEASKQQASVEKGQ
notes: MexB (RND transporter), Pseudomonas aeruginosa, full length; also called RND transporter; source: E. coli C43(DE3), membranes solubilised with DDM, purified (Ni-chelating Sepharose, Superdex200, CYMAL-7)
B2: OprM, full length (natural protein)
chain: CSLIPDYQRPEAPVAAAYPQGQAYGQNTGAAAVPAADIGWREFFRDPQLQQLIGVALENNRDLRVAALNVEAFRAQYRIQRADLFPRIGVDGSGTRQRLPGDLSTTGSPAISSQYGVTLGTTAWELDLFGRLRSLRDQALEQYLATEQAQRSAQTTLVASVATAYLTLKADQAQLQLTKDTLGTYQKSFDLTQRSYDVGVASALDLRQAQTAVEGARATLAQYTRLVAQDQNALVLLLGSGIPANLPQGLGLDQTLLTEVPAGLPSDLLQRRPDILEAEHQLMAANASIGAARAAFFPSISLTANAGTMSRQLSGLFDAGSGSWLFQPSINLPIFTAGSLRASLDYAKIQKDINVAQYEKAIQTAFQEVADGLAARGTFTEQLQAQRDLVKASDEYYQLADKRYRTGVDNYLTLLDAQRSLFTAQQQLITDRLNQLTSEVNLYKALGGGWNQQTVTQQQTAKKEDPQA
notes: OprM (outer membrane factor), Pseudomonas aeruginosa, gene encoding full-length OprM; The full-length gene was expressed; also called OMF; outer membrane factor; source: E. coli C43(DE3), outer membranes solubilised with OG, purified (Ni-NTA, Superdex200, CYMAL-7)

How the values were obtained:
[1] = biological target: the molecule itself; assay: cryo-EM structure; MexA, MexB and OprM reconstituted in vitro, detergent replaced with amphipol A8-35, 50 mM HEPES-K pH 7.5; single-particle analysis; 0° and 60° states; without drug and with 10 mM novobiocin
OprM, full length [2] = biological target: B2; assay: as above; details: both partners purified
OprM, full length [3] = biological target: B2; assay: SEC; complex-formation experiment: MexA, MexB and OprM (wild type, or one of them mutated) mixed at 3:1:1 in buffer C, dialysed against buffer D (20 mM Na-citrate, 300 mM KCl, 0.02% CYMAL-7) at 4 °C, Superdex200 16/60, 0.5 mL/min; the read-out is the formation of the tripartite complex; details: both partners purified
MexB, full length = biological target: B1; assay: as above; details: both partners purified

Row | Binder | stoichiometry N [1] | stoichiometry N (OprM, full length [2]) | binding result (OprM, full length [3]) | binding result (MexB, full length)
1 | B1 | 3 | – | – | –
2 | MexA (a.a. 2-360) (natural protein, MexA (membrane fusion protein), Pseudomonas aeruginosa, a.a; 2-360, lacks the signal peptide and the first cysteine; numbers count on: the mature protein; Six copies (a hexamer) stand in the assembled MexAB-OprM pump; also called MFP; membrane fusion protein; source: E. coli BL21-RILP(DE3), purified (Ni-NTA, TEV cleavage, Superdex200); not shown: His6, N-terminal, cleaved) GKSEAPPPAQTPEVGIVTLEAQTVTLNTELPGRTNAFRIAEVRPQVNGIILKRLFKEGSDVKAGQQLYQIDPATYEADYQSAQANLASTQEQAQRYKLLVADQAVSKQQYADANAAYLQSKAAVEQARINLRYTKVLSPISGRIGRSAVTEGALVTNGQANAMATVQQLDPIYVDVTQPSTALLRLRRELASGQLERAGDNAAKVSLKLEDGSQYPLEGRLEFSEVSVDEGTGSVTIRAVFPNPNNELLPGMFVHAQLQEGVKQKAILAPQQGVTRDLKGQATALVVNAQNKVELRVIKADRVIGDKWLVTEGLNAGDKIITEGLQFVQPGVEVKTVPAKNVASAQKADAAPAKTDSKG | 6 | 2 MexA per OprM | – | –
3 | MexA L99D (natural protein, Pseudomonas aeruginosa, UniProt P52477 25-383, looked up, MexA, Pseudomonas aeruginosa, a.a; 2-360 as m1; numbers count on: the mature protein; source: E. coli, expressed and purified as the wild type; not shown: His6, N-terminal, cleaved) GKSEAPPPAQTPEVGIVTLEAQTVTLNTELPGRTNAFRIAEVRPQVNGIILKRLFKEGSDVKAGQQLYQIDPATYEADYQSAQANLASTQEQAQRYKDLVADQAVSKQQYADANAAYLQSKAAVEQARINLRYTKVLSPISGRIGRSAVTEGALVTNGQANAMATVQQLDPIYVDVTQPSTALLRLRRELASGQLERAGDNAAKVSLKLEDGSQYPLEGRLEFSEVSVDEGTGSVTIRAVFPNPNNELLPGMFVHAQLQEGVKQKAILAPQQGVTRDLKGQATALVVNAQNKVELRVIKADRVIGDKWLVTEGLNAGDKIITEGLQFVQPGVEVKTVPAKNVASAQKADAAPAKTDSKG | – | – | binds | binds
4 | MexA R96D (natural protein, Pseudomonas aeruginosa, UniProt P52477 25-383, looked up, MexA, Pseudomonas aeruginosa, a.a; 2-360 as m1; numbers count on: the mature protein; source: E. coli, expressed and purified as the wild type; not shown: His6, N-terminal, cleaved) GKSEAPPPAQTPEVGIVTLEAQTVTLNTELPGRTNAFRIAEVRPQVNGIILKRLFKEGSDVKAGQQLYQIDPATYEADYQSAQANLASTQEQAQDYKLLVADQAVSKQQYADANAAYLQSKAAVEQARINLRYTKVLSPISGRIGRSAVTEGALVTNGQANAMATVQQLDPIYVDVTQPSTALLRLRRELASGQLERAGDNAAKVSLKLEDGSQYPLEGRLEFSEVSVDEGTGSVTIRAVFPNPNNELLPGMFVHAQLQEGVKQKAILAPQQGVTRDLKGQATALVVNAQNKVELRVIKADRVIGDKWLVTEGLNAGDKIITEGLQFVQPGVEVKTVPAKNVASAQKADAAPAKTDSKG | – | – | binds | –
5 | MexA R96A (natural protein, Pseudomonas aeruginosa, UniProt P52477 25-383, looked up, MexA, Pseudomonas aeruginosa, a.a; 2-360 as m1; numbers count on: the mature protein; source: E. coli, expressed and purified as the wild type; not shown: His6, N-terminal, cleaved) GKSEAPPPAQTPEVGIVTLEAQTVTLNTELPGRTNAFRIAEVRPQVNGIILKRLFKEGSDVKAGQQLYQIDPATYEADYQSAQANLASTQEQAQAYKLLVADQAVSKQQYADANAAYLQSKAAVEQARINLRYTKVLSPISGRIGRSAVTEGALVTNGQANAMATVQQLDPIYVDVTQPSTALLRLRRELASGQLERAGDNAAKVSLKLEDGSQYPLEGRLEFSEVSVDEGTGSVTIRAVFPNPNNELLPGMFVHAQLQEGVKQKAILAPQQGVTRDLKGQATALVVNAQNKVELRVIKADRVIGDKWLVTEGLNAGDKIITEGLQFVQPGVEVKTVPAKNVASAQKADAAPAKTDSKG | – | – | binds | binds
6 | B2 | 3 | – | – | –

Source: paper PMC6447562, “Structures of the wild-type MexAB–OprM tripartite pump reveal its complex formation and drug efflux mechanism” (Nature Communications, 2019)
